Test [1] addresses Ad26 viral particles. The test can be described thus: SPR; pre-vaccination human serum (1:5) flowed over Ad26 first. In general terms: In SPR one partner is held on a chip, and binding of the other changes the refractive index at the surface.
The target in test [2] is Ad26 viral particles. The test can be described thus: SPR; post-Ad26 vaccination human serum (1:5) flowed over Ad26 first.
Test [3] addresses Ad26 viral particles. Nature of the test: SPR; pre-vaccination human serum (1:5) flowed over Ad26 first. This is another data set of the same source.
For test [4], the target named is Ad26 viral particles. The test can be described thus: SPR; post-Ad26 vaccination human serum (1:5) flowed over Ad26 first. This is another data set of the same source.

From article PMC10593859 (2023) come the findings set out here.

A word on the Kd: it is the concentration at which binding is half-saturated. Lower therefore signals a tighter complex.

B1: recombinant human platelet factor 4 (PF4) (natural protein)
chain: EAEEDGDLQCLCVKTTSQVRPRHITSLEVIKAGPHCPTAQLIATLKNGRKICLDLQAPLYKKIIKKLLES
As for B1, the Kd is 233 nM in the test with Ad26 viral particles [1], 478 nM in the test with Ad26 viral particles [2], 122 nM with Ad26 viral particles [3] and 612 nM in the test with Ad26 viral particles [4].
